Laboratory results reported in the DeepSol protein solubility set.

Test: soluble on expression in E. coli; label from the status in PepcDB or PDB records

Sequence | soluble on expression in E. coli
MSDVAETLDPLRLPLQGERLIEASAGTGKTFTIAALYLRLLLGLGGSAAFPRPLTVEELLVVTFTEAATAELRGRIRSNIHELRIACLRETTDNPLYERLLEEIDDKAQAAQWLLLAERQMDEAAVFTIHGFCQRMLNLNAFESGMLFEQQLIEDESLLRYQACADFWRRHCYPLPREIAQVVFETWKGPQALLRDINRYLQGEAPVIKAPPPDDETLASRHAQIVARIDTVKQQWRDAVGELDALIESSGIDRRKFNRSNQAKWIDKISAWAEEETNSYQLPESLEKFSQRFLEDRTKAGGETPRHPLFEAIDQLLAEPLSIRDLVITRALAEIRETVAREKRRRGELGFDDMLSRLDSALRSESGEVLAAAIRTRFPVAMIDEFQDTDPQQYRIFRRIWHHQPETALLLIGDPKQAIYAFRGADIFTYMKARSEVHAHYTLDTNWRSAPGMVNSVNKLFSQTDDAFMFREIPFIPVKSAGKNQALRFVFKGETQPAMKMWLMEGESCGVGDYQSTMAQVCAAQIRDWLQAGQRGEALLMNGDDARPVRASDISVLVRSRQEAAQVRDALTLLEIPSVYLSNRDSVFETLEAQEMLWLLQAVMTPERENTLRSALATSMMGLNALDIETLNNDEHAWDVVVEEFDGYRQIWRKRGVMPMLRALMSARNIAENLLATAGGERRLTDILHISELLQEAGTQLESEHALVRWLSQHILEPDSNASSQQMRLESDKHLVQIVTIHKSKGLEYPLVWLPFITNFRVQEQAFYHDRHSFEAVLDLNAAPESVDLAEAERLAEDLRLLYVALTRSVWHCSLGVAPLVRRRGDKKGDTDVHQSALGRLLQKGEPQDAAGLRTCIEALCDDDIAWQTAQTGDNQPWQVNDVSTAELNAKTLQRLPGDNWRVTSYSGLQQRGHGIAQDLMPRLDVDAAGVASVVEEPTLTPHQFPRGASPGTFLHSLFEDLDFTQPVDPNWVREKLELGGFESQWEPVLTEWITAVLQAPLNETGVSLSQLSARNKQVEMEFYLPISEPLIASQLDTLIRQFDPLSAGCPPLEFMQVRGMLKGFIDLVFRHEGRYYLLDYKSNWLGEDSSAYTQQAMAAAMQAHRYDLQYQLYTLALHRYLRHRIADYDYEHHFGGVIYLFLRGVDKEHPQQGIYTTRPNAGLIALMDEMFAGMTLEEA | soluble
MSDVSTSVQSKFARLAKKKENITYMKREQLTETDKDIAPVLDLKCKDVSAIMNKFKVLMEIQDLMFEEMRETLKNDLKAVLGGKATIPEVKNSENSSSRTEFQQIINLALQKTGMVGKIEGENSKIGDDNENLTFKLEVNELSGKLDNTNEYNSNDGKKLPQGESRSYEVMGSMEETLCNIDDRDGNRNVHLEFTERESRKDGEDEFVKEMREERKFQKLKNKEEVLKASREEKVLMDEGAVLTLAADLSSATLDISKQWSNVFNILRENDFEPKFLCEVKLAFKCDGEIKTFSDLQSLRKFASQKSSMKELLKDVLPQKEEINQGGRNYGIQEKRDKTLIDSKHRAGEITSDGLSFLFLKEVKVAKPEEMKNLETQEEEFSELEELDEEASGMEDDEDTSGLEEEEEEPSGLEEEEEEEASGLEEDEASGLEEEEEQTSEQDSTFQGHTLVDAKHEVEITSDGMETTFIDSVEDSESEEEEEGKSSETGKVKTTSLTEKKASRRQKEIPFSYLVGDSGKKKLVKHQVVHKTQEEEETAVPTSQGTGTPCLTLCLASPSKSLEMSHDEHKKHSHTNLSISTGVTKLKKTEEKKHRTLHTEELTSKEADLTEETEENLRSSVINSIREIKEEIGNLKSSHSGVLEIENSVDDLSSRMDILEERIDSLEDQIEEFSKDTMQMTKQIISKERQRDIEERSRSCNIRLIGIPEKESYENRAEDIIKEIIDENFAELKKGSSLEIVSACRVPSKIDEKRLTPRHILVKFWNSSDKEKIIRASRERREITYQGTRIRLTADLSLDTLDARSKWSNVFKVLLEKGFNPRILYPAKMAFDFRGKTKVFLSIEEFRDYVLHMPTLRELLGNNIP | soluble
MSEALETGDPSPPPPIVSENGKTYYYLNSQESQAPNTPSPQEVPPKKMTNLFESGPLVYEDVAADIEAVTERASRRHYENKMVVKNSREMFDNVNILPDGRYYCCLCNRPYKTHATLTAHLRGYHLRNESSCDEPGCNFLSFTDQEKKRHRRTHDKKKKERNSQESMVIHEKIQKAVRRLDYPGEDELRDHLNGSTEVQGTIRTMTKKGKIRYACLKCPHSVFNAYHAARHVEMHNDFPKNCFYCGEIRKGTVDLQVHYMRVHKHEGIRTFKCSVCHLRFTTTILFRDHVECENGCQNPEIRQDIYYGELPEGTIVDDLTQDRLQNFRKRQEIWKTMGQMVEEHRTDVHEEIVGESSVQAGDTTVFDGSRAFIQTPFGLKTALEVKNTSRFCPRSGKRTSDDDLMITNKKRERLEMAPNLHFHQDIIHRLPTSTTTQRQNNAFQNEYLRPPVSYGYDPLIGRYPDFQLMSQSSLPSSSASSSSYDPFATAVYQDSDRNPMQPNDQHICDMNNVGAYETANFGLDNSSDLVVNEATIASNLMVNEVEDEVFEELNKLDFVMPADDGNDNDDDLEEVFNFGNVA | not soluble
MSEDILPITISLAGEKDTIRLGEDLALALKPGDCLTLIGDLGAGKSTLARAFIRAMADEPDLEVPSPTFTIIQTYTTRIPVAHLDLYRLSDVSELDELGIDEMLEDGICLIEWPDIAAEVLPPAQTITLQLTHSGEGRVAVIEAPAQQKARLDRVFAIREFLAKNGRGDATRRFLSGDASTRAYETISTDGPDLILMDWRRPMRGAIVADGKTYAEIVHLAQDARSFVAIGDYLRNSGFRAPEILAADIDQGILLLEDLGREGVLAADGTPIEERYLQSVACLATLHQTPRPALLPMRDGSTYDIPSFDRQAMKIEVSLLVEWYLPHKRGKALTDGEKQDYYAIWDGLIDALAGCETGLLLRDFHSPNILWQAQNSGIGQVGLIDFQDAMIGPTAYDLASIVQDARVTIPPELQTRLMSHYLNSRKATPAFDEAAFLKAFAIMSAQRNCKLAGIWVRLLERDKKPGYMKHMPRTFRYLADALSHPELAPLREWCVRMGMDFNDLEHHHHHH | soluble
MSEELEYLKVLLYASQVEAQKLRKQKEEKDALLKTFQVKLEVEALGNLPAQRNLSEDISKREIQSLKKQVTVLKEEIGLEGSKLAIANAVQEQLKTDLADEKEKCRFTREVTKLYQMNIQLDQPSRDQVADYLQFEIRTVKEVLRQKEEELEKLMAENKYNYFENCAEKCRIQEETSAARREADLLRDEMKTLVKNMNAKSEELLGQLRDSTEKCEEMEIDCNIQLLELQKRHELLNYYASLG | not soluble
MSEFDELKYLTGFGNEHATSDPRVPDALPVGQNSPQKCSHGLYAEQLSGTAFTAPRSQNQRSWLYRIRPSVIHRPFEAMKENDQHWTNNFSSIPPNPNQYRWNPFPLPTKEGVTFVDNLYTVCGGGDVISRTGLAIHQFSCNASMEHTAMYNSDGDFLIVPQQGALEITTEFGRLLVNPQEIAVIPQGIRFSVAVRGPSRGYILEVYGTHFQLPDLGPIGANGLANPRDFEAPVAWFEDLDVEFTIINKYQGSWFQAKQGHSPFDVVGWHGNYVPYKYDLKKFMVINTVSFDHCDPSIFTVLTAPSVKHGTAIADFVIFPPRWGCADNTFRPPYYHRNCMSEYMGLITGCYEAKEGGFKPGGGSLHSMMTPHGPDFNCFEMASNADLKPQRVAEGTMSFMFESSLNMAITNWAVYQNVDKDYYKDWQPLKKHFTMPK | not soluble
MSEFHSEISTLSPAPLWQFFDKICSIPHPSKHEEALAQYIINWATEQGFDVRRDPTGNVFIKKPATPGMENKKGVVLQAHIDMVPQKNEDTDHDFTKDPIQPYIDGEWVTAKGTTLGADNGIGMASCLAVLASKDIKHGPIEVLLTIDEEAGMTGAFGLEAGWLEGDILLNTDSEQEGEVYMGCAGGIDGAMTFDIKRDAIPTGFVTRQLTLKGLKGGHSGCDIHTGRGNANKLLGRFLAGHAQELDLRLVEFRGGSLRNAIPREAFVTVAVPAENQEKLAELFNYYTELLKAELGKVETGIVTFNEEIVTESQAFTAADQQRFIAALNACPNGVMRMSDEIEGVVETSLNVGVITTEENKVTVLCLIRSLIDSGRSQVESMLRSVAELAGAQVEFSGAYPGWKPDADSEIMAIFRDMYEGIYGHKPNIMVIHAGLECGLFKEPYPNMDMVSFGPTIKFPHSPDEKVKIDTVQLFWDQMVALLEAIPEKALEHHHHHH | soluble
MSEIHAGGCHCGRLRYQFDAPLKDIAHCHCSICWRTSGATVVTWISVPLASFKWLTGSPAAYDSAATCVRYFCGNCGAHMALFTRNSPNEMDVTIATLDQPELAVPSRHIWIENRLPWLHLDEDLPGDEGEP | not soluble
MSEITASRPEVVNGHTDVICSTSIRHILAVRKSTLLQIDTLIRQLAEVSAMTESIRGKTALDWAMKQDFRCGCWLMEKPETAMKAITRNLDRELWRDLMQRSGMLSLMDAQTRDTWYRSLEYDNFPEISEANILSTFEQLHQNKDEVFERGVINVFKGLSWDYKTNSPCKFGSKIIVNNLVRWDRWGFHLITGQQTDRLVDLERMLHLFSGKPIPDNRENITIRLDGHIQSVQGKERYEDEMFIIKYFKKGSAHITFKRLELIDRINDIIARYFPSVLSA | not soluble
MSEKEIWDKVLEIAQERISNTSYQTFIKDTQLYSLKNDEAIILVSLPFNASWLNQRYSEIMQAIIYDVIGYEVKPHFISEDELASYNNVNTQEVQEPQVQHSSIDDKTWGKEQFNMHNTFDTFVIGPGNRFPHAASLAVAEAPAEAYNPLFIYGGVGLGKTHLMHAIGHHVLSNKPNAKVIYTSSEKFTNEFIKSIRDNETEAFREKYRKIDVLLIDDIQFIQNKEQTQEEFFHTFNELHQNNKQIVISSDRPPKEIAKLEDRLRSRFEWGLIVDITPPDYETRMAILQKKIEEENLDIPPEALNYIANQIQSNIRELEGALTRLLAYSKLQGKPITTELTAEALKDIIQSPKSKKITIQDIQKVVGQYYSVRIEDFSAKKRTKSIAYPRQIAMYLSRELTDFSLPKIGEEFGGRDHTTVIHAHEKIANDIKSDPTFKQEVENLEKEIRNQLEHHHHHH | not soluble
MSEKTFLVEIGTEELPPKALRSLAESFAANFTAELDNAGLAHGTVQWFAAPRRLALKVANLAEAQPDREIEKRGPAIAQAFDAEGKPSKAAEGWARGCGITVDQAERLTTDKGEWLLYRAHVKGESTEALLPNMVATSLAKLPIPKLMRWGASDVHFVRPVHTVTLLLGDKVIPATILGIQSDRVIRGHRFMGEPEFTIDNADQYPEILRERGKVIADYEERKAKIKADAEEAARKIGGNADLSESLLEEVASLVEWPVVLTAKFEEKFLAVPAEALVYTMKGDQKYFPVYANDGKLLPNFIFVANIESKDPQQIISGNEKVVRPRLADAEFFFNTDRKKRLEDNLPRLQTVLFQQQLGTLRDKTDRIQALAGWIAEQIGADVNHATRAGLLSKCDLMTNMVFEFTDTQGVMGMHYARHDGEAEDVAVALNEQYQPRFAGDDLPSNPVACALAIADKMDTLAGIFGIGQHPKGDKDPFALRRAALGVLRIIVEKNLNLDLQTLTEEAVRLYGDKLTNANVVDDVIDFMLGRFRAWYQDEGYTVDTIQAVLARRPTRPADFDARMKAVSHFRTLDAAAALAAANKRVSNILAKSDEVLSDRVNASTLKEPEEIKLAMQVVVLRDKLEPYFTEGRYQDALVELAELREPVDAFFDKVMVMVDDKELRINRLTMLEKLRELFLRVADISLLQ | soluble
MSELHFMSLEELDNELEKDDSGIYFIKDYNDNIIYIGKAFSIKSRVLAHFNSYSNIKEYVHLFNKVAYLIEDSLLKRSLLQVTYMIKYKPVLNKEVQKEFPELYTQYIKQTNKKSMLLEIEEAKEKRDELKNRLVKLVGGKTMFYDIISLLNNGYNYHVLAKVLSIELQTLIIMKEHRNKFPMPHNYKRTIKHQDIMYALSGKKNLSTSRLNT | soluble
MSEPVKLRAHTQAHCKDCSLAPLCLPLSLNTDDMDSLDQIVKRGRPLKKGEFLFRQGDTFESVYAVRSGALKTFNISDNGEEQLTGFHLPSELVGLSGMDAEAYPVSAQALETTSVCEIPFERLDELSVQLPQLRRQLMRVMSREIRDDQQMMLLLSKKTADERIATFLINLSARFRARGFSANQFRLSMSRSEIGNHLGLAVETVSRVFTRFQQNQLVSAEGKEIHILAPIELCALAGGAMQS | soluble
